Two molecules from article PMC7967050 (Advanced Science, 2021) can be followed below.

For assay [1], the target named is T1, Recombinant human CD38 extracellular domain (amino acids 43–300, hCD38-ECD) (Homo sapiens, UniProt P28907, biotin (EZ-Link NHS-PEG4-biotin) for panning and for capture on the SA biosensor; not said for the cross-linking).
T1 construct: human CD38, extracellular domain, amino acids 43-300; also called purified CD38; extracellular domain of human CD38; source: bought: Sino Biological, Cat. No. 10818-H08H
Description: BLI; Octet Red96, room temperature; biotin conjugated hCD38-ECD captured on SA biosensor; scFv in PBS, 0.02% Tween-20, 0.05% BSA, pH 7.4; association 300 s, dissociation 1200 s; 1:1 Langmuir model; for RP02 (biphasic dissociation) only the initial 0-330 s fitted, apparent KD. The note with it: both partners purified. In general terms: In BLI a coated tip is dipped into the sample, and binding shifts an interference pattern.

The next assay has as its target T2, ECD domain of mouse CD38 (Mus musculus, UniProt P56528).
T2 construct: mouse CD38, extracellular domain; also called mCD38-ECD
Description: BLI; purified scFv antibodies against mCD38-ECD on an Octet; set-up for the mouse protein not told. The note with it: both partners purified.

Assay [2] concerns the target T3, CD38 on the cell surface (RPMI8226, Daudi, hPBMC) (Homo sapiens, UniProt P28907).
T3 construct: human CD38, endogenous on the surface of RPMI8226, Daudi and PBMC cells; In the functional rows the same protein is also expressed in K562 cells from electroporated CD38 mRNA; also called cell surface CD38; membrane-expressed CD38; source: endogenous, on RPMI8226, Daudi and human PBMC cells
Description: flow cytometry on cells; purified scFv incubated with hPBMC, Daudi or RPMI8226 cells, fluorescence labeled secondary antibody; MFI normalised to that of 028 scFv. The note with it: one partner purified. For orientation: In flow cytometry, cells or beads pass a laser one at a time.

T2 sequence (P56528 45-304): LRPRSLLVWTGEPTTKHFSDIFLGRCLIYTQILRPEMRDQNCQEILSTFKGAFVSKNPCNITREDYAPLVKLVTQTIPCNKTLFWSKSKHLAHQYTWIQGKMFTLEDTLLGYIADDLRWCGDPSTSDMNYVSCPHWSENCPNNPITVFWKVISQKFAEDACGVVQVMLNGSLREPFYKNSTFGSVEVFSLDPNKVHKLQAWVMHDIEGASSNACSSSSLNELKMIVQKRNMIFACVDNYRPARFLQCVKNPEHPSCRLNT

B1: high-affinity anti-CD38 antibody 028 (scFv) (scFv, V domains shown)
VH: QVQLVQSGAEVKKPGSSVKVSCKAFGGTFSSYAISWVRQAPGQGLEWMGRIIRFLGIANYAQKFQGRVTLIADKSTNTAYMELSSLRSEDTAVYYCAGEPGERDPDAVDIWGQGTMVTVSS
VL: DIQMTQSPSSLSASVGDRVTITCRASQGIRSWLAWYQQKPEKAPKSLIYAASSLQSGVPSRFSGSGSGTDFTLTISSLQPEDFATYYCQQYNSYPLTFGGGTKVEIK
notes: In the functional rows the scFv stands in a CAR on T cells; source: purified scFv
As to B1, the Kd in assay [1] came out at 0.65 nM.

B2: anti-CD38 scFv antibody RP02 (scFv, V domains shown)
VH: PAQLVESGPGLVKPSGTLSLTCAVSGGSISSSNWWSWVRQPPGKGLEWIGEIYHSGSTNYNPSLKSRVTISVDKSKNQFSLKLSSVTAADTAVYYCAREDYYYYMDVWGKGTTVTVQS
VL: QSVLTQPPSVSAAPGQKVTISCSGSSSNIGNNYVSWYQQLPGTAPKLLIYDNNKRPSGIPDRFSGSKSGTSATLGITGLQTGDEADYYCGTWDSSLSAGVFGGGTKLTVL
notes: selected from a combinatorial scFv phage library; In the functional rows the scFv stands in a CAR on T cells; also called RP02 scFv; source: purified scFv
Turning to B2, the binding result with ECD domain of mouse CD38 was “no binding”; in assay [2] it was “binds”.
